Assay results: paper PMC5228624

Target: T1, arginine vasopressin (AVP) (UniProt P01185 20-28)
T1 chain: CYFQNCPRG
Assay: bead capture, thermal elution, MALDI-TOF MS

ACCTGGGGGAGTATTGCGGAGGAAGGTAAAAAAA (ssDNA) [ATP-specific aptamer (control)]: no binding.
